The text below walks through data of patent US20040072152A1.

Several values for one entry are separate records, joined by “and”; a condition that tells them apart may be missing. Identical values can stand only once.

What all share (settings): scale: ratio of % tetramer-binding CD8alpha-high cells, bound/unbound fraction
Assay [1] addresses E-selectin expressed on CHO-E cells (UniProt P16581). The experiment in a line: peptide-stimulated PBMC, one hour rotary co-incubation with CHO-E monolayer, flow cytometry with tetramer B7-APA. (In flow cytometry, cells or beads pass a laser one at a time.)
For assay [2] the target is unchanged. Description: un-manipulated PBMC, one hour rotary co-incubation with CHO-E monolayer, flow cytometry with tetramer B7-RPR.
Assay [3] has the same target. Description: peptide-stimulated PBMC, one hour rotary co-incubation with CHO-E monolayer, flow cytometry with tetramer B7-RPR.

On to “CLA-associated E-selectin ligand on HSV-2-specific CD8+ T-cells”, for which the CHO-E-selectin enrichment in assay [1] is 8.3; in assay [2], 13.2 and 10.1 and 5.6; in assay [3], 9.5.
